The target in test [1] is calnexin (CNX), endogenous in COS7 cells. As to the kind of experiment: sequential co-immunoprecipitation (CNX then GlyT2 antibodies), densitometry of fluorograms. As to conditions: 15 min [35S]methionine/cysteine pulse, 30 min chase, n = 3, parent: est. 100, read off a plot.
Test [2] addresses calnexin (CNX), endogenous in COS7 cells (African green monkey (endogenous in COS7)). Nature of the test: co-IP; COS7 cells pulse-labeled 15 min with [35S]methionine/cysteine and chased; sequential immunoprecipitation with anti-CNX, then anti-GlyT2 antibodies (1% CHAPS); SDS-PAGE, fluorography, densitometry; also after treatment of cells with tunicamycin, castanospermine, deoxynojirimycin, deoxymannojirimycin, kifunensin, or at 45°C.

These results are taken from PMC3641136.

Take “neuronal glycine transporter 2 (GlyT2), wild type (from UniProt P58295) N1”: the percent of parent in test [1] was 69 % of wtGlyT2.

For the molecule “neuronal glycine transporter 2 (GlyT2), wild type (from UniProt P58295) N2”, the percent of parent in test [1] is 62 % of wtGlyT2. The same measure, in the same setting: the figure for “neuronal glycine transporter 2 (GlyT2), wild type (from UniProt P58295) N3” is 72 % of wtGlyT2; for “neuronal glycine transporter 2 (GlyT2), wild type (from UniProt P58295) N13” it is 85 % of wtGlyT2.

For “neuronal glycine transporter 2 (GlyT2), wild type (from UniProt P58295) N23”, the percent of parent in test [1] is 62 % of wtGlyT2. On the same count and under the same terms, then “neuronal glycine transporter 2 (GlyT2), wild type (from UniProt P58295) N123”, with 35 % of wtGlyT2; and “neuronal glycine transporter 2 (GlyT2), wild type (from UniProt P58295) N234”, with 48 % of wtGlyT2. On to “neuronal glycine transporter 2 (GlyT2), wild type (from UniProt P58295) N345D; N355D; N360D; N366D”, for which, in test [1], the percent of parent is 74 % of wtGlyT2. On to “neuronal glycine transporter 2 (GlyT2), wild type (from UniProt P58295) N366D”, for which the percent of parent in test [1] is 51 % of wtGlyT2.

B1: neuronal glycine transporter 2 (GlyT2), wild type (natural protein)
chain: MDCSAPKEMNKPPTNILEATVPGHRDSPRAPRTSPEQDLPAAAPAAAVQPPRVPRSASTGAQTFQSADARACEAQRPGVGFCKLSSPQAQATSAALRDLSEGHSAQANPPSGAAGAGNALHCKIPALRGPEEDENVSVGKGTLEHNNTPAVGWVNMSQSTVVLGTDGIASVLPGSVATTTIPEDEQGDENKARGNWSSKLDFILSMVGYAVGLGNVWRFPYLAFQNGGGAFLIPYLMMLALAGLPIFFLEVSLGQFASQGPVSVWKAIPALQGCGIAMLIISVLIAIYYNVIICYTLFYLFASFVSVLPWGSCNNPWNTPECKDKTKLLLDSCVIGDHPKIQIKNSTFCMTAYPNLTMVNFTSQANKTFVSGSEEYFKYFVLKISAGIEYPGEIRWPLAFCLFLAWVIVYASLAKGIKTSGKVVYFTATFPYVVLVILLIRGVTLPGAGAGIWYFITPKWEKLTDATVWKDAATQIFFSLSAAWGGLITLSSYNKFHNNCYRDTLIVTCTNSATSIFAGFVIFSVIGFMANERKVNIENVADQGPGIAFVVYPEALTRLPLSPFWAIIFFLMLLTLGLDTMFATIETIVTSISDEFPKYLRTHKPVFTLGCCICFFIMGFPMITQGGIYMFQLVDTYAASYALVIIAIFELVGISYVYGLQRFCEDIEMMIGFQPNIFWKVCWAFVTPTILTFILCFSFYQWEPMTYGSYRYPNWSMVLGWLMLACSVIWIPIMFVIKMYLAPGRFIERLKLVCSPQPDWGPFLAQHRGERYKNMIDPLGTSSLGLKLPVKDLELGTQC
modifications: N-glycans on asparagines 345, 355, 360 and 366; the CNX-bound form is the 75 kDa under-glycosylated, EndoH-sensitive precursor
In test [2], B1 gave a half-life of the complex (pulse-chase) of 1 h.
